Source: IntAct's records for PubMed 22322943

B1: Axin-2 (Mus musculus), O88566 (parent)
chain: MSSAVLVTLLPDPSSSFREDAPRPPVPGEEGETPPCQPSVGKVQSTKPMPVSSNARRNEDGLGEPEGRASPDSPLTRWTKSLHSLLGDQDGAYLFRTFLEREKCVDTLDFWFACNGFRQMNLKDTKTLRVAKAIYKRYIENNSVVSKQLKPATKTYIRDGIKKQQIGSVMFDQAQTEIQAVMEENAYQVFLTSDIYLEYVRSGGENTAYMSNGGLGSLKVLCGYLPTLNEEEEWTCADLKCKLSPTVVGLSSKTLRATASVRSTETAENGFRSFKRSDPVNPYHVGSGYVFAPATSANDSELSSDALTDDSMSMTDSSVDGVPPYRMGSKKQLQREMHRSVKANGQVSLPHFPRTHRLPKEMTPVEPAAFAAELISRLEKLKLELESRHSLEERLQQIREDEEKEGSEQALSSRDGAPVQHPLALLPSGSYEEDPQTILDDHLSRVLKTPGCQSPGVGRYSPRSRSPDHHHQHHHHQQCHTLLPTGGKLPPVAACPLLGGKSFLTKQTTKHVHHHYIHHHAVPKTKEEIEAEATQRVRCLCPGGTDYYCYSKCKSHPKAPEPLPGEQFCGSRGGTLPKRNAKGTEPGLALSARDGGMSSAAGAPQLPGEEGDRSQDVWQWMLESERQSKSKPHSAQSIRKSYPLESACAAPGERVSRHHLLGASGHSRSVARAHPFTQDPAMPPLTPPNTLAQLEEACRRLAEVSKPQKQRCCVASQQRDRNHSAAGQAGASPFANPSLAPEDHKEPKKLASVHALQASELVVTYFFCGEEIPYRRMLKAQSLTLGHFKEQLSKKGNYRYYFKKASDEFACGAVFEEIWDDETVLPMYEGRILGKVERID

Variants of: B1
Details: with cdc20_human CDC20, Q12834
Chain of cdc20_human CDC20, Q12834 (Q12834 whole entry): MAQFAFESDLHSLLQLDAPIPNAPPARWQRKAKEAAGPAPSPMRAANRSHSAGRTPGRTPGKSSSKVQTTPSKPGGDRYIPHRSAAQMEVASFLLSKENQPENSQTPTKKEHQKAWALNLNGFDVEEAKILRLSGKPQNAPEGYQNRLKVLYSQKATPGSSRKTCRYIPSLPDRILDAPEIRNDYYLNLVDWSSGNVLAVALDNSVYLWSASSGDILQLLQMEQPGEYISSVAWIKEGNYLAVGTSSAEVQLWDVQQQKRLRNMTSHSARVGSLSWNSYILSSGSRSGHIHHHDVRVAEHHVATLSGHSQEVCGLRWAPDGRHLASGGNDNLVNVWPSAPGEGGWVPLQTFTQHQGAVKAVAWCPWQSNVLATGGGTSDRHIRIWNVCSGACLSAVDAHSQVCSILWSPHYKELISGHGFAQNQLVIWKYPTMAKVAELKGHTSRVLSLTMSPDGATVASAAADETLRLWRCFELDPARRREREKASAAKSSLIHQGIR

Effect of a mutation on the interaction, decreasing interaction:
R96A
L99A

Variants of: B1
Details: with cdc20_human CDC20, Q12834
Remark: another data set of the same source

Effect of a mutation on the interaction, decreasing interaction:
R388A
L391A
R657A
L660A
R775A
R776A
L778A
